B1: SLC2A12 (parent)
chain: LTLVFFVQITGQPNILFYASTVLK

Variants of: B1
Assay: protein stability index of a GFP-peptide fusion (GPS, HEK-293T) (PSI 1-6); higher = more stable
Conditions: c terminus: a fixed tail appended
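Further: lentivirally expressed fusions sorted by FACS into six bins by GFP to DsRed ratio, PSI derived from sequencing read proportions per bin multiplied by bin number.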

Row | Variant | protein stability index
1 | ETLVFFVQITGQPNILFYASTVLK | 2.27
2 | FTLVFFVQITGQPNILFYASTVLK | 4.63
3 | GTLVFFVQITGQPNILFYASTVLK | 4.08
4 | HTLVFFVQITGQPNILFYASTVLK | 2.7
5 | ITLVFFVQITGQPNILFYASTVLK | 2.33
6 | KTLVFFVQITGQPNILFYASTVLK | 2.96
7 | MTLVFFVQITGQPNILFYASTVLK | 3.03
8 | NTLVFFVQITGQPNILFYASTVLK | 1.69
9 | PTLVFFVQITGQPNILFYASTVLK | 2.54
10 | RTLVFFVQITGQPNILFYASTVLK | 1.8
11 | STLVFFVQITGQPNILFYASTVLK | 3.18
12 | TTLVFFVQITGQPNILFYASTVLK | 3.79
13 | VTLVFFVQITGQPNILFYASTVLK | 2.75
14 | WTLVFFVQITGQPNILFYASTVLK | 2.65
15 | YTLVFFVQITGQPNILFYASTVLK | 2.85
16 | LALVFFVQITGQPNILFYASTVLK | 2.61
17 | LCLVFFVQITGQPNILFYASTVLK | 2.24
18 | LDLVFFVQITGQPNILFYASTVLK | 2.45
19 | LELVFFVQITGQPNILFYASTVLK | 1.69
20 | LFLVFFVQITGQPNILFYASTVLK | 2.44
21 | LGLVFFVQITGQPNILFYASTVLK | 2.15
22 | LILVFFVQITGQPNILFYASTVLK | 4.67
23 | LKLVFFVQITGQPNILFYASTVLK | 3.54
24 | LLLVFFVQITGQPNILFYASTVLK | 3.88

Row | Variant | protein stability index
25 | LMLVFFVQITGQPNILFYASTVLK | 3.56
26 | LNLVFFVQITGQPNILFYASTVLK | 3.71
27 | LPLVFFVQITGQPNILFYASTVLK | 2.78
28 | LSLVFFVQITGQPNILFYASTVLK | 3.26
29 | LWLVFFVQITGQPNILFYASTVLK | 2.96
30 | LYLVFFVQITGQPNILFYASTVLK | 3.04
31 | LTAVFFVQITGQPNILFYASTVLK | 3.64
32 | LTDVFFVQITGQPNILFYASTVLK | 2.9
33 | LTEVFFVQITGQPNILFYASTVLK | 4.85
34 | LTGVFFVQITGQPNILFYASTVLK | 2.17
35 | LTHVFFVQITGQPNILFYASTVLK | 2.75
36 | LTIVFFVQITGQPNILFYASTVLK | 3.43
37 | LTMVFFVQITGQPNILFYASTVLK | 3.15
38 | LTNVFFVQITGQPNILFYASTVLK | 2.42
39 | LTPVFFVQITGQPNILFYASTVLK | 3.17
40 | LTQVFFVQITGQPNILFYASTVLK | 3.25
41 | LTRVFFVQITGQPNILFYASTVLK | 2.29
42 | LTSVFFVQITGQPNILFYASTVLK | 3.34
43 | LTTVFFVQITGQPNILFYASTVLK | 4.46
44 | LTVVFFVQITGQPNILFYASTVLK | 4.79
45 | LTWVFFVQITGQPNILFYASTVLK | 4.1
46 | LTYVFFVQITGQPNILFYASTVLK | 2.54
47 | LTLCFFVQITGQPNILFYASTVLK | 3.38
48 | LTLDFFVQITGQPNILFYASTVLK | 3.68

Row | Variant | protein stability index
49 | LTLEFFVQITGQPNILFYASTVLK | 1.44
50 | LTLGFFVQITGQPNILFYASTVLK | 4
51 | LTLHFFVQITGQPNILFYASTVLK | 3.15
52 | LTLIFFVQITGQPNILFYASTVLK | 2.99
53 | LTLKFFVQITGQPNILFYASTVLK | 2.64
54 | LTLLFFVQITGQPNILFYASTVLK | 2.65
55 | LTLMFFVQITGQPNILFYASTVLK | 2.09
56 | LTLNFFVQITGQPNILFYASTVLK | 2.73
57 | LTLPFFVQITGQPNILFYASTVLK | 2.67
58 | LTLQFFVQITGQPNILFYASTVLK | 3.56
59 | LTLSFFVQITGQPNILFYASTVLK | 2.54
60 | LTLWFFVQITGQPNILFYASTVLK | 2.98
61 | LTLYFFVQITGQPNILFYASTVLK | 2.54
62 | LTLVEFVQITGQPNILFYASTVLK | 2.7
63 | LTLVHFVQITGQPNILFYASTVLK | 1.93
64 | LTLVIFVQITGQPNILFYASTVLK | 2.45
65 | LTLVNFVQITGQPNILFYASTVLK | 2.65
66 | LTLVPFVQITGQPNILFYASTVLK | 3.32
67 | LTLVQFVQITGQPNILFYASTVLK | 2.13
68 | LTLVRFVQITGQPNILFYASTVLK | 3.67
69 | LTLVSFVQITGQPNILFYASTVLK | 1.66
70 | LTLVTFVQITGQPNILFYASTVLK | 1.96
71 | LTLVVFVQITGQPNILFYASTVLK | 2.47
72 | LTLVWFVQITGQPNILFYASTVLK | 3.59

Row | Variant | protein stability index
73 | LTLVYFVQITGQPNILFYASTVLK | 2.52
74 | LTLVFAVQITGQPNILFYASTVLK | 2.9
75 | LTLVFDVQITGQPNILFYASTVLK | 2.69
76 | LTLVFGVQITGQPNILFYASTVLK | 3.11
77 | LTLVFHVQITGQPNILFYASTVLK | 3.02
78 | LTLVFLVQITGQPNILFYASTVLK | 2.26
79 | LTLVFQVQITGQPNILFYASTVLK | 4.18
80 | LTLVFTVQITGQPNILFYASTVLK | 2.35
81 | LTLVFVVQITGQPNILFYASTVLK | 3.64
82 | LTLVFWVQITGQPNILFYASTVLK | 2.85
83 | LTLVFFAQITGQPNILFYASTVLK | 2.03
84 | LTLVFFDQITGQPNILFYASTVLK | 3.27
85 | LTLVFFHQITGQPNILFYASTVLK | 3.64
86 | LTLVFFKQITGQPNILFYASTVLK | 1.59
87 | LTLVFFMQITGQPNILFYASTVLK | 4.19
88 | LTLVFFSQITGQPNILFYASTVLK | 2.3
89 | LTLVFFWQITGQPNILFYASTVLK | 2.61
90 | LTLVFFYQITGQPNILFYASTVLK | 3.38
91 | LTLVFFVAITGQPNILFYASTVLK | 4.06
92 | LTLVFFVCITGQPNILFYASTVLK | 3.19
93 | LTLVFFVEITGQPNILFYASTVLK | 3.4
94 | LTLVFFVFITGQPNILFYASTVLK | 3.87
95 | LTLVFFVGITGQPNILFYASTVLK | 2.93
96 | LTLVFFVHITGQPNILFYASTVLK | 3.26

Row | Variant | protein stability index
97 | LTLVFFVIITGQPNILFYASTVLK | 3.94
98 | LTLVFFVKITGQPNILFYASTVLK | 3.48
99 | LTLVFFVLITGQPNILFYASTVLK | 2.46
100 | LTLVFFVNITGQPNILFYASTVLK | 3.92
101 | LTLVFFVPITGQPNILFYASTVLK | 2.51
102 | LTLVFFVSITGQPNILFYASTVLK | 2.51
103 | LTLVFFVTITGQPNILFYASTVLK | 3.53
104 | LTLVFFVQATGQPNILFYASTVLK | 2.57
105 | LTLVFFVQETGQPNILFYASTVLK | 4.04
106 | LTLVFFVQFTGQPNILFYASTVLK | 2.63
107 | LTLVFFVQGTGQPNILFYASTVLK | 2.45
108 | LTLVFFVQHTGQPNILFYASTVLK | 4.79
109 | LTLVFFVQLTGQPNILFYASTVLK | 5.05
110 | LTLVFFVQMTGQPNILFYASTVLK | 3.4
111 | LTLVFFVQNTGQPNILFYASTVLK | 3.06
112 | LTLVFFVQQTGQPNILFYASTVLK | 1.99
113 | LTLVFFVQRTGQPNILFYASTVLK | 3.42
114 | LTLVFFVQSTGQPNILFYASTVLK | 3.01
115 | LTLVFFVQTTGQPNILFYASTVLK | 3.18
116 | LTLVFFVQWTGQPNILFYASTVLK | 3.12
117 | LTLVFFVQIAGQPNILFYASTVLK | 3.42
118 | LTLVFFVQIDGQPNILFYASTVLK | 2.75
119 | LTLVFFVQIEGQPNILFYASTVLK | 2.11
120 | LTLVFFVQIFGQPNILFYASTVLK | 2.92

Row | Variant | protein stability index
121 | LTLVFFVQIHGQPNILFYASTVLK | 2.17
122 | LTLVFFVQIIGQPNILFYASTVLK | 3.61
123 | LTLVFFVQIKGQPNILFYASTVLK | 3.77
124 | LTLVFFVQINGQPNILFYASTVLK | 1.88
125 | LTLVFFVQIPGQPNILFYASTVLK | 5.16
126 | LTLVFFVQIQGQPNILFYASTVLK | 1.31
127 | LTLVFFVQISGQPNILFYASTVLK | 1.67
128 | LTLVFFVQIYGQPNILFYASTVLK | 3.46
129 | LTLVFFVQITAQPNILFYASTVLK | 2.87
130 | LTLVFFVQITCQPNILFYASTVLK | 2.58
131 | LTLVFFVQITDQPNILFYASTVLK | 3.42
132 | LTLVFFVQITFQPNILFYASTVLK | 2.92
133 | LTLVFFVQITLQPNILFYASTVLK | 2.33
134 | LTLVFFVQITMQPNILFYASTVLK | 3.38
135 | LTLVFFVQITNQPNILFYASTVLK | 3.96
136 | LTLVFFVQITPQPNILFYASTVLK | 3.28
137 | LTLVFFVQITQQPNILFYASTVLK | 4.06
138 | LTLVFFVQITSQPNILFYASTVLK | 2.87
139 | LTLVFFVQITTQPNILFYASTVLK | 2.29
140 | LTLVFFVQITVQPNILFYASTVLK | 2.45
141 | LTLVFFVQITYQPNILFYASTVLK | 3.04
142 | LTLVFFVQITGCPNILFYASTVLK | 2.83
143 | LTLVFFVQITGDPNILFYASTVLK | 2.94
144 | LTLVFFVQITGEPNILFYASTVLK | 2.25

Row | Variant | protein stability index
145 | LTLVFFVQITGIPNILFYASTVLK | 2.73
146 | LTLVFFVQITGKPNILFYASTVLK | 3.74
147 | LTLVFFVQITGLPNILFYASTVLK | 3.8
148 | LTLVFFVQITGMPNILFYASTVLK | 3.94
149 | LTLVFFVQITGNPNILFYASTVLK | 1.94
150 | LTLVFFVQITGRPNILFYASTVLK | 2.64
151 | LTLVFFVQITGSPNILFYASTVLK | 2.21
152 | LTLVFFVQITGTPNILFYASTVLK | 3.22
153 | LTLVFFVQITGVPNILFYASTVLK | 2.91
154 | LTLVFFVQITGYPNILFYASTVLK | 2.33
155 | LTLVFFVQITGQANILFYASTVLK | 3.85
156 | LTLVFFVQITGQENILFYASTVLK | 3.73
157 | LTLVFFVQITGQGNILFYASTVLK | 5.6
158 | LTLVFFVQITGQHNILFYASTVLK | 3.43
159 | LTLVFFVQITGQINILFYASTVLK | 2.72
160 | LTLVFFVQITGQKNILFYASTVLK | 2.67
161 | LTLVFFVQITGQQNILFYASTVLK | 2.05
162 | LTLVFFVQITGQRNILFYASTVLK | 3.44
163 | LTLVFFVQITGQSNILFYASTVLK | 3.1
164 | LTLVFFVQITGQTNILFYASTVLK | 2.59
165 | LTLVFFVQITGQVNILFYASTVLK | 3.35
166 | LTLVFFVQITGQYNILFYASTVLK | 2.2
167 | LTLVFFVQITGQPAILFYASTVLK | 2.73
168 | LTLVFFVQITGQPCILFYASTVLK | 1.99

Row | Variant | protein stability index
169 | LTLVFFVQITGQPDILFYASTVLK | 3.93
170 | LTLVFFVQITGQPEILFYASTVLK | 1.76
171 | LTLVFFVQITGQPFILFYASTVLK | 3.6
172 | LTLVFFVQITGQPGILFYASTVLK | 3.5
173 | LTLVFFVQITGQPHILFYASTVLK | 2.96
174 | LTLVFFVQITGQPIILFYASTVLK | 4.38
175 | LTLVFFVQITGQPLILFYASTVLK | 3.78
176 | LTLVFFVQITGQPMILFYASTVLK | 2.01
177 | LTLVFFVQITGQPPILFYASTVLK | 2.34
178 | LTLVFFVQITGQPQILFYASTVLK | 3.83
179 | LTLVFFVQITGQPRILFYASTVLK | 3.96
180 | LTLVFFVQITGQPSILFYASTVLK | 2.14
181 | LTLVFFVQITGQPTILFYASTVLK | 3.06
182 | LTLVFFVQITGQPYILFYASTVLK | 1.5
183 | LTLVFFVQITGQPNALFYASTVLK | 2.99
184 | LTLVFFVQITGQPNCLFYASTVLK | 2.48
185 | LTLVFFVQITGQPNELFYASTVLK | 2.91
186 | LTLVFFVQITGQPNFLFYASTVLK | 3.04
187 | LTLVFFVQITGQPNKLFYASTVLK | 2.67
188 | LTLVFFVQITGQPNLLFYASTVLK | 4.71
